This experiment deals with SpyTag fused to an elastin-like polypeptide with a C-terminal cysteine. The experiment is described as follows: core-shell assembly of protein-coated particles.

Percent of the core aggregate surface occupied by green (shell) particles data for one substance are collected here from PMC5672941.

Substance “SpyCatcher fused to an elastin-like polypeptide with a C-terminal cysteine (designed binder)” showed a percent of the core aggregate surface occupied by green (shell) particles of 60%.
